Reference: US20250270343A1 (Alector, published 2025)

T1: soluble mouse GPNMB-Fc polypeptide (mouse IgG2A Fc) (mouse, UniProt Q99P91 23-502)
T1 construct: extracellular domain; bought (R&D System); also called moGPNMB-Fc; mGPNMB-Fc; not shown: Fc region of mouse IgG2A
T1 sequence (looked up): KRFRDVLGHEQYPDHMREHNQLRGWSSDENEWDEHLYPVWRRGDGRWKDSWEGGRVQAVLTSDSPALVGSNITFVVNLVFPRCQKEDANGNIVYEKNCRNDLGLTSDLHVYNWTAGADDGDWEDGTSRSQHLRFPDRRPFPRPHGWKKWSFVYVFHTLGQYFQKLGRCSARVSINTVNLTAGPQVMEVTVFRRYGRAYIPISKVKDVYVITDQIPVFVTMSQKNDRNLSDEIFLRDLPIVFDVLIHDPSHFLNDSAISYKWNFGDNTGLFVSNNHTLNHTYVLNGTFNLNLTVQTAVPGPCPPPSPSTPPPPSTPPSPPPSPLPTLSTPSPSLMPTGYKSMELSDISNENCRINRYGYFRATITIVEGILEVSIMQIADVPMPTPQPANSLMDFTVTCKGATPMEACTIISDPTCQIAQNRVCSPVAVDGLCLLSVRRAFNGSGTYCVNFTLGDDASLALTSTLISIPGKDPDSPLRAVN

T2: mouse GPNMB endogenously expressed on B16F10 cells (mouse, UniProt Q99P91 23-574)
T2 construct: whole, on cells; also called moGPNMB
T2 sequence (looked up): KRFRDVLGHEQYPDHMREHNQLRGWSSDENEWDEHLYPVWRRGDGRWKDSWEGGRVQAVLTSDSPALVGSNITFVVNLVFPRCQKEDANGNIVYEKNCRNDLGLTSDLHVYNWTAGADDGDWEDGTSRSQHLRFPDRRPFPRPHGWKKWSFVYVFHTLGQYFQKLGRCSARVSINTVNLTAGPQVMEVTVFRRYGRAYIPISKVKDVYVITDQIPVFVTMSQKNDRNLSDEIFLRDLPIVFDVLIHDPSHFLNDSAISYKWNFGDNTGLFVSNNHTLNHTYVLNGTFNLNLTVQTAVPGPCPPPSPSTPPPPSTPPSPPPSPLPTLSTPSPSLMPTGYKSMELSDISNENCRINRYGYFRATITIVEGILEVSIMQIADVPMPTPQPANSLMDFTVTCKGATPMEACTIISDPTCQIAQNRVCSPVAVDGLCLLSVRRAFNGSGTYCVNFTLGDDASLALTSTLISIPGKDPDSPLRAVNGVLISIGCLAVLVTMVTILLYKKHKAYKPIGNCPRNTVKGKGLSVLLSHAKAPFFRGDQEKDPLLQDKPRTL

T3: full-length untagged human GPNMB expressed on cells (human, UniProt Q14956 23-572)
T3 sequence: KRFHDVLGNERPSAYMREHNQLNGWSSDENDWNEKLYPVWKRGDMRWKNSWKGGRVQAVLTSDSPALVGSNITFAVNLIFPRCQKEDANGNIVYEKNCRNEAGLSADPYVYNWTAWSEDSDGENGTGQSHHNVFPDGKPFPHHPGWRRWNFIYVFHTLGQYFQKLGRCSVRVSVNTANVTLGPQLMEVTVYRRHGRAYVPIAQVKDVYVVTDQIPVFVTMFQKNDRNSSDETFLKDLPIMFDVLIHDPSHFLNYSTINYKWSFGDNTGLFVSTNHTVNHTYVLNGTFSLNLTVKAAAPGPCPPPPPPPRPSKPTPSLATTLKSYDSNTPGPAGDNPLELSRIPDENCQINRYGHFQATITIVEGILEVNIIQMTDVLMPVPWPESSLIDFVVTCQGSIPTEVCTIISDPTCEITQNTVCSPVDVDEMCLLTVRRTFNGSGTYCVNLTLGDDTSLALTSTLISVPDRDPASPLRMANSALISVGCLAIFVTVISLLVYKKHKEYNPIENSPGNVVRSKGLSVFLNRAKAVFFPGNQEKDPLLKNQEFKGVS


How the values were obtained:
[1] = target: T1, soluble mouse GPNMB-Fc polypeptide …; assay: FACS, blocking of moGPNMB-Fc binding to SVEC4-10 cells
Protocol: (§1) Purified full-length anti-GPNMB antibodies of the present disclosure were evaluated for their ability to block binding of moGPNMB-Fc to SVEC4-10 cells to determine the ligand blocking potency of each anti-GPNMB monoclonal antibody. Briefly, 2 μg/mL moGPNMB-Fc (mouse IgG2A Fc) diluted in binding buffer was pre-complexed with increasing concentrations of anti-GPNMB antibody of the present disclosure or human IgG1 isotype control antibody in 96-well plates. Subsequently, 100,000 SVEC4-10 cells were added per well and incubated on ice for 30 minutes. Soluble moGPNMB-Fc bound to cell surface was detected with fluorescent anti-mouse IgG2A secondary antibody and measured on FACSCanto. (FIG. 5A and FIG. 5B) IC50 values (for antibodies that block moGPNMB-Fc cell binding) and EC50 values (for antibodies that enhance moGPNMB-Fc cell binding) based on changes in MFI values were calculated (average+standard error) for each anti-GPNMB antibody and listed in Table 6. In Table 6, NA indicates no activity. […] In all cases, certain anti-GPNMB antibodies of the present disclosure blocked soluble GPNMB binding to cells, while other anti-GPNMB antibodies of the present disclosure enhanced soluble GPNMB binding to cells.

[2] = target: T2, mouse GPNMB endogenously expressed on …; assay: FACS, B16F10 cells; single-point FACS staining of B16F10 cells; weak signal, 1.7-fold over background
[3] = target: T2, mouse GPNMB endogenously expressed on …; assay: FACS titration on B16F10 cells (endogenous mouse GPNMB) at 4 C; fluorescent secondary antibody; MFI-APC against soluble antibody (nM)
Protocol: Cell-based binding measurements were also performed to measure the apparent affinities of anti-GPNMB antibodies of the present disclosure to cell-surface expressed GPNMB. Serial dilutions of the monoclonal anti-GPNMB antibodies were added to 100,000 Freestyle293-huGPNMB+ or B16F10 cells and allowed to achieve binding equilibrium at 4° C. After addition of fluorescently labeled secondary antibody and brief washing steps, MFI values as a function of titrated antibody concentration was recorded via FACS analysis. Curves were fit using nonlinear regression analysis with Graphpad Prism 6 software.

[4] = target: T3, full-length untagged human GPNMB …; assay: cell-based or functional assay
[5] = target: T1, soluble mouse GPNMB-Fc polypeptide …; assay: FACS, enhancing of moGPNMB-Fc binding to SVEC4-10 cells
Protocol: as §1

[6] = target: T3, full-length untagged human GPNMB …; assay: FACS, FS293-huGPNMB+ cells; single-point FACS staining of Freestyle293-huGPNMB+ cells; weak signal, 2.0-fold over background

IC50 [1] | IC50 (read off the curve) of the loss of cell surface GPNMB (MFI), internalization assay on human macrophages [4] | Binder | other results
1.2 nM |  | anti-GPNMB antibody GPN-48 (antibody, human IgG1, V domains shown, chimeric) VH: QVQLQQSGPELVKPGASVKLSCRASGYGFSSFWMNWVKQRPGKGLEWIGRIYPGKGDTLYNGKFKDKATLTADESSSTAYMQLSSLTSEDSAVYFCARSIYYYDYWYFDVWDTGTTVTVSS VL: DIVMTQSHKFMSTSVGDRVNITCKASQDVNSAIAWYQQKPGQSPKLLIYSASYRFIGVPDRFTGSGSGTGFTFTISSVQAEDLAVYYCQQHYTTPLTFGAGTKLELK | MFI fold over background [2]: 1.7 fold; EC50 (read off the curve) [3]: ~1 nM
 | ~2 nM | anti-GPNMB antibody GPN-65 (antibody, human IgG1, V domains shown, chimeric) VH: QLQLQQSGTEVVKPGASVKIPCKASGYAFSSYWMNWVKQRPGKGLEWIGQIYPGDGDTNDNGKFEGKATLTVDKSSNTAYIQLSSLTSEDSAVYFCARSPLHLRGSMDYWGQGTSVTVSS VL: SIVMTQTPKFLLVSAGDRVTITCKASQSVSNDVAWFQQKPGQSPELLIYSASNRYTGVPDRFTGSGYGTDFTFTISTVQAEDLAVYFCQQNYYSPFTFGGGTRLEIK | EC50 [5]: 4.27 nM
1 nM | ~2 nM | anti-GPNMB antibody GPN-52 (antibody, human IgG1, V domains shown, chimeric) VH: DVQLQESGPGLVKPSQTVFLTCTVTGISITTGNYRWSWIRQFPGNKLEWIGYIYYSGTITYNPSLTSRITITRDTPKNEFFLEMNSLTAEDTATYYCARDLTHWYFDVWGTGTTVTVSS VL: not shown | 
0.77 nM | ~2 nM | anti-GPNMB antibody GPN-61 (antibody, human IgG1, V domains shown, chimeric) VH: DVQLQESGPGLVKPSQTVFLTCTVTGISITTGNYRWSWIRQFPGNKLEWIGYIYYSGTITYNPSLTSRTTITRDTPKNQFFLEMSSLTAEDTATYFCARDLRHWYFDVWGTGTTVTVSS VL: not shown | MFI fold over background [2]: 1.7 fold; EC50 (read off the curve) [3]: ~0.1 nM
1.17 nM |  | anti-GPNMB antibody GPN-35 (antibody, human IgG1, V domains shown, chimeric) VH: EVQLVESGGGSVRPGRSLKLSCAAAGFTFSDYYMTWVRQAPTKGLEWVASINHDGGGTYYRDSVKGRFTISRDNARSSLYLQMDSLRSEDTGTYYCTTRAGWHWGQGVMVTVSS VL: DIQMTQSPASLSASLGETVSIECLASEDIYNYLTWYQQKPGKSPQVLIYSASGLQDGVPSRFSGSGSGRQYSLKINGLESEDAATYFCLQDSEYPLTFGSGTKLEIK | 
 |  | anti-GPNMB antibody GPN-42 (antibody, human IgG1, V domains shown, chimeric) VH: DVKLVESGEDLVKPGGSLKLSCAASGFTFSSYAMSWVRQTPEKRLEWVAYISSGGDYIYYADTVKGRFTISRDNARNTLYLQMSSLKSEDTAMYYCTRDRYYDYDVRDYYTMDYWGQGTSVTVSS VL: DVMMTQTPLSLPVSLGDQASISCRSSQSLVHSNGNTYLHWFLQKPGQSPKLLIFRVSNRFSGVPDRFSGRGSGTDFTLKISRVEAEDLGVYFCSQTTHVPRTFGGGTTLEIK | EC50 [5]: 1.19 nM; MFI fold over background [6]: 2 fold
 | ~2 nM | anti-GPNMB antibody GPN-37 (antibody, human IgG1, V domains shown, chimeric) VH: EVQLVESGGGLVQPGRSLKLSCAASGFTFSSKSGMAWVRQAPTKGLEWVASISNGGGDTYYRDSVKGRFTISRDNAKNTQYLQMDSLRPEDTATYYCARHRDYGYDAYFDYWGQGVMVTVSS VL: DIQMTQSPASLSASLGETVTIECLASEDIYSSLAWYQQKPGKSPQLLIYDASSLQDGVPSRFSGSESGTQYSLEINSLQSEDAATYFCQQHHDYPYTFGAGTKLELK | 
5.37 nM |  | anti-GPNMB antibody GPN-43 (antibody, human IgG1, V domains shown, chimeric) VH: EVQLQQSGPELVKPGASVKISCKASGYTFTDYYMNWVRQSHGKSLEWIGDINPYHGGSTYNQKIKVKATLTVDKSSSTAYMELRSLTSEDSAVYYCARNWPYFDYWGQGTTLTVSS VL: DIQMTQSPASLSASVGETVTITCRASENIYSFLVWYQQKQGKSPQLLVYNAKTLAEGVPSRFSGSGSGTQFSLKISSLQPEDFGSYYCQHHFGTPPYTFGGGTKLEIK | 
